Series [1] concerns surface proteins of Porphyromonas gingivalis (whole cells) (Porphyromonas gingivalis). The following applies: whole-cell binding, real-time PCR of eluted aptamer, SELEX buffer, room temperature.
For series [2], the system named is surface proteins of Aggregatibacter actinomycetemcomitans (whole cells) (Aggregatibacter actinomycetemcomitans). The following applies: whole-cell binding, real-time PCR of eluted aptamer, SELEX buffer, room temperature. A general note: In qPCR the cycle at which signal appears reflects the starting amount.

The values that follow come from US10487331.

As usually defined, the Kd is the concentration at which binding is half-saturated. Higher therefore signals a looser complex.

Consider “TCCCTACGGCGCTAACTGTAACTGGGAGCGGACCTAGGTTACATGAGCCACCGTGCTACAAC [P. gingivalis aptamer]”, for which, in series [1], the Kd is 4.59 nM.
Turning to “TCCCTACGGCGCTAACCGTATGTGTACCCGGTGGGGCGCGATTGACGCCACCGTGCTACAAC [A. actinomycetemcomitans aptamer]”, the Kd in series [2] was determined as 3.5 nM.
